Experimental data as given in the nanobody polyreactivity screen of Harvey et al. (2022).

Assay: yeast display, Sf9 membrane polyspecificity reagent, FACS + sequencing; frameworks hold sequencing errors
How it was run: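 Polyreactivity labels are assigned by the sorting gate from which each nanobody was recovered. The gates were low and high (top ~1%), set on anti-HA fluorescence for expression and streptavidin fluorescence for reagent binding. Before sorting, galactose-induced (36–48 hours) yeast display cells were stained for 1 hour at 4 °C with 10% biotinylated, detergent-solubilized Sf9 membrane reagent.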

Row | Sequence | polyreactivity (PSR sort gate)
1 | QVQLVESGGGLVQAGGSLRLSCAASGSILAYYGMGWYRQAPGKEREFVAAISNRGGSTYYADSVKGRFTISRDNAKNTVYLQLNSLKPEDTAVYYCARELYRRVWHHWAYWAAYDYWGQGTQVTVSS | low polyreactivity
2 | QVQLVESGGGLVQAGGSLRLSCAASGSILDGYVMGWYRQAPGKDRELVAAISTNSDRTYYADSVKGRFTISRDNAKNTVDLQMNSLKPEDTAVYYCNARKLRRAGFPYDYWGQGTQVTVSS | high polyreactivity
3 | QVQLVESGGGLVQAGGSLRLSCAASGSILDSNAMGWYRQAPGKERELVAAITSGGSTYYADSVKGRFTISRDNAKNTVYLLMNSLKPEDTAVYYCAAAYLGYGAVQPSYEGGYWGQGTQVTVSS | low polyreactivity
4 | QVQLVESGGGLVQAGGSLRLSCAASGSILDYKVMGWYRQPPGKERELVAAIRGGGSTYYADSVKGRFTISRDNAKNTVYLQMNSLKPEVTAVYYCAKDSQTARDFDYWGQGTQVTVSS | low polyreactivity
5 | QVQLVESGGGLVQAGGSLRLSCAASGSILESNVMGWYRQAPGKERELVASISSSGDSTYADSVKGRFTISRDNAKNTVYLQMNRLKPEDTAVYYCASDRLYWTYALYYWGQGTQVNVSS | low polyreactivity
6 | QVQLVESGGGLVQAGGSLRLSCAASGSILEYYAMGWYRQAPGKERELVAGISSAGNTYYADSVKGRFTISRDNAKNTVYLQMNSLKPEDSAVYYCAAVPWSGEYDYWGQATQVTVSS | low polyreactivity
7 | QVQLVESGGGLVQAGGSLRLSCAASGSILFVYAMGWYRQAPGKERELVAGINSSGTSTYADSVKGRFTISRDNAKNTVYLQMNSLKPEDTAVYYCAARWFYYRWAYDYWGQGTQVTVSS | low polyreactivity
8 | QVQLVESGGGLVQAGGSLRLSCAASGSILFYNTMGWYRQAPGKERELVASITSGGSTKYADSVKGRFTISRDNAKNTVYLQMNSLKPEDTAVYYCNADRRFYSIYRWHHYYWGQGTQVTVSS | low polyreactivity
9 | QVQLVESGGGLVQAGGSLRLSCAASGSILGDYAMGWYRQAPGSEREFVAAIDGSDGSTYYADSVKGRFTISRDNAKNTVYLQMNSLKPEDTAVYYCAATDYDTYRSSWYDYWGQGTQVTVSS | low polyreactivity
10 | QVQLVESGGGLVQAGGSLRLSCAASGSILGGNAKGWYRQAPGKERELVAAITFSGGGTYYADSVKGRFTISRDNAKNTVYLQMNSLKPEDTAVYYCAADKDGYTYEFDYWGQGTQVTVSS | low polyreactivity
11 | QVQLVESGGGLVQAGGSLRLSCAASGSILGLNAMGWYRQAPGKERELVASISRRGGSTRYADSVKGRFTISRDNAKNTVYLQMNSLKPEDTAVYYCNAYHWDGDGVFYEYDYWGQGTQVTVSS | high polyreactivity
12 | QVQLVESGGGLVQAGGSLRLSCAASGSILGPYAMGWYRQAPGKERELVAAISWGGGSTYYADSVKGRFTISRDNAKNTVYLQMNSLKPEDTAVYYCAADFGYYDYDYWGQGTQVTVSS | low polyreactivity
13 | QVQLVESGGGLVQAGGSLRLSCAASGSILGTYAMGWYRPAPGKESELVAAISSSGRTSYADTVKGRFTNSRDNAKNTVYLQMKSLKPEDTAVYYCNASNYIVLINDPDAAPWVYDYWGPGTQVTVSS | low polyreactivity
14 | QVQLVESGGGLVQAGGSLRLSCAASGSILGYYAMGWYRQAPGKERELVAGIDYSAGSTYYADSVKGRFTISRDNAKNTVYLQMNSLKPEDTAVYYCAADVDSYWGTYDYWGQGTQVTVSS | low polyreactivity
15 | QVQLVESGGGLVQAGGSLRLSCAASGSILGYYAMGWYRQAPGTEREFVAAITRSGSRTYYADSVKGRFTISRDNAKNTVNLHMNSLKPEDTAVYYCAKKGLFQGWPTLVDYWGEGTQVTVSS | high polyreactivity
16 | QVQLVESGGGLVQAGGSLRLSCAASGSILGYYAMRWYRQAPGKERELVAAITASGGSTYYADSVKGRFTISRDNAKNTVYLQMNSLKPEDTAAYYCAAQYYATYGYWGQGTQVTVSS | low polyreactivity
17 | QVQLVESGGGLVQAGGSLRLSCAASGSILHLYAMGWYRQAPGKERELVARINSGGTTNYADSVKGRFTISRDNAKNTVYLQMNSLKPEDTAVYYCAARFTPFITSDDGHYDYWGQGTQVTVSS | low polyreactivity
18 | QVQLVESGGGLVQAGGSLRLSCAASGSILIPNAMGWYRQAPGKERELVASISKSGGSTYYADSVKGRFTISRDNAKNTVYLPKNSLKPEDTAVYYCAAAFVSVRKRYGYWGQGTQVTVSS | high polyreactivity
19 | QVQLVESGGGLVQAGGSLRLSCAASGSILIYNAMGWYRQAPGKERELVAGISRRGASTYYADSVKGRFTISRDNAKNTVYLQMNSLKPEDTAVYYCAALGKYIVAWSGDYWGHGTQVTVSS | low polyreactivity
20 | QVQLVESGGGLVQAGGSLRLSCAASGSILLRYAMGWYRQAPGKEWELVAAIRTIGASTYYADSVKGRFTISRYNAMITVYLQMNSLKPDDTAVYYCNAESASYWYRPGYDYWGQGNQVTVSS | low polyreactivity
21 | QVQLVESGGGLVQAGGSLRLSCAASGSILLTNTMGWYRQAPGKERELVADINSGASTNYADSVKGRFTISRDNAKNTVYLQMNSLKPEDTAVYYCAADTKGGTYEYDYWGQGTKVTVSS | low polyreactivity
22 | QVQLVESGGGLVQAGGSLRLSCAASGSILLYYTMGWYRQAPGKERELVASITSGGRTYYADSVKGRFTISRDNAKNTVYLQMNSLKPEDTAVYFCAADVWKLYDYWGQGTQVTVSS | low polyreactivity

Row | Sequence | polyreactivity (PSR sort gate)
23 | QVQLVESGGGLVQAGGSLRLSCAASGSILNIYTMGWYRQAPGTERELVAAITSGDITYYADSVKGLFTISRDNAKNTVYLQMISLKPEDTAVYYCAADASSQINEWLSYGEGYNYWGQGTQVTVSS | low polyreactivity
24 | QVQLVESGGGLVQAGGSLRLSCAASGSILNNYAMGWYRQAPGKERELVAAISSSGGTNYADSVKGRFTISRDNAKNTVYLQMNSLKPEDTAVYYCNADVLDGGYDYWVQGTQVTVSS | low polyreactivity
25 | QVQLVESGGGLVQAGGSLRLSCAASGSILNSYAMGWYRQAPGKERELVASITVIGGSTYYADSVKGRFSISRDNAKNTDYLQMNSLKPEDTAVYYCNKEWIIADAYYGVHDYYYWGQGTQVTVSS | low polyreactivity
26 | QVQLVESGGGLVQAGGSLRLSCAASGSILPDYAMGWYRQAPGKERELVASITNSGDSTYYADSVKGRFTISRDNAKNPVYLQMNSLKPEDTAVYYCNADSVRYDYSANDYEYWGQGSQVTVSS | high polyreactivity
27 | QVQLVESGGGLVQAGGSLRLSCAASGSILPVNAMGWYRQAPGKERELVAAITSSGSTTYADSVKGRFTISRDNAKNTVYLQMNSLKEEDTAVYYCAADVYWSYYLYYIYKGGYWGQGTQVTVSS | low polyreactivity
28 | QVQLVESGGGLVQAGGSLRLSCAASGSILRDHAMGWYRQATGKERELVAAITSGDSTHYADSVKGRFTISRDNAKNTVYLQMNSLKPEDTAVYYCATKWSLISIHGYYYWGQGTQVTVSS | low polyreactivity
29 | QVQLVESGGGLVQAGGSLRLSCAASGSILRPNVMGWYRQAPGKERELVARISSRGVNTYYADSVKGRFTLSRDNAKNTVYLQMHSLKPEDTAVFYCNARRAQYYWNRSAKYDYWGQGTQVTVSS | high polyreactivity
30 | QVQLVESGGGLVQAGGSLRLSCAASGSILRQYAMGWYRQAPGKERELVATITGDGSTNYADSVKGRFTISRDNAKNTVYLQMNSLKPEDTAVYYCAADQTYTYEYWGQGTQVTVSS | low polyreactivity
31 | QVQLVESGGGLVQAGGSLRLSCAASGSILRQYAMGWYRQAPGKERELVATITGDGSTNYADSVKGRFTISRDNAKNTVYLQMNSLKPEDTAVYYCNAELPVHWSWYDYWGQGTQVTVSS | low polyreactivity
32 | QVQLVESGGGLVQAGGSLRLSCAASGSILRRYAMGWYRQAPGKEREFVAAISYSGSRTYYADSVKGRFTISRDNAKNTVYLQMNSLKPEDTAVYYCAADSYGSRYEYWGQGTQVTVSS | high polyreactivity
33 | QVQLVESGGGLVQAGGSLRLSCAASGSILRSNAMGWYRQAPGKERELVATITNSGGSTYADSVKGCFTISRDNAKNTVYLQMNSLKPEDTAVYYCAKAGAGESIAKYDYWGQGTQVTVSS | low polyreactivity
34 | QVQLVESGGGLVQAGGSLRLSCAASGSILSGYAMGWYRQAPGKETELVAAITSGGDTNYADSVKGRFTISRDNAKNTVYLQMNSLKPEDTAVYYCNRRGDFRIAYYDPMDYWGQGTQVTVSS | low polyreactivity
35 | QVQLVESGGGLVQAGGSLRLSCAASGSILSLYTMGWYRQAPGKERELVAAITSRGTRTYYADSVKGRFTISRDYAKNTVYLQMNRLKPEDTAVYYCAAGSYYWGQGTQVTVSS | high polyreactivity
36 | QVQLVESGGGLVQAGGSLRLSCAASGSILSSYAMGWYRQAPGKERELVAAISYTGDSTYYADSVKGRFTISRDNAKNTVYLQMNSLKPEDTAVYYCAAELLPPYYYRWLEYWGQGTQVTVSS | low polyreactivity
37 | QVQLVESGGGLVQAGGSLRLSCAASGSILSTYAMGWYRQAPGKERELVASISSNAGSTYYADSVKGRFTISRDNAKNTVYLQMNSLKPEDTAVYYCATESYVEGDYWGQGTQVTVSS | low polyreactivity
38 | QVQLVESGGGLVQAGGSLRLSCAASGSILSYYVMGWYRPAPGKERELVAAITSDGSTNYADSVKGRFTISRDNAKNTVYLQMNSLKPEDTAVYYCAAVIAWYYGVQDVYYLGLYDYWGQGTQVTVSS | low polyreactivity
39 | QVQLVESGGGLVQAGGSLRLSCAASGSILTHYAMGWYRQAPGKERELVAGIPWSGTSTYYADSVKGRFTISRDNAKNTVYLQMNSLKPEDTAVYYCNARHYGWGFAWKYDYWGQGTQVTVSS | low polyreactivity
40 | QVQLVESGGGLVQAGGSLRLSCAASGSILTVYAMGWYRQAPGKERELVARIRSGDRTYYADSVKGRFTISRDNAKNSVYLQMNSLKPEDTAVYYFAAGSQLRYYHTNWDSFNYWGQGTQVTVSS | low polyreactivity
41 | QVQLVESGGGLVQAGGSLRLSCAASGSILTWYPMGWYRQAPRKERELVAAITRGGSTYADSVKGRFTISRDNAKNTVYLQMNILKPEDTAVYYCKAVYGVYVFNYWGQGTQVSVSS | low polyreactivity
42 | QVQLVESGGGLVQAGGSLRLSCAASGSILVDNAMASYRQAPGKERELVARITGSGGSTYYADSVKGRFTISRDNAKNSVYLQMHILKPEDTAVYYCAARRVNAGWTYGLRGNYWGQGTQVTVSS | low polyreactivity
43 | QVQLVESGGGLVQAGGSLRLSCAASGSILVHYSMGWYRQAPGKERELVAAISRGGSTNYADSVKGRFTISRDNAKNTVYLQMNSLKPEDTAVYYCAARRPWGEYYWGQGTQVTVSS | low polyreactivity
